Source: US20190225698A1 (JIANGSU HENGRUI MEDICINE, published 2019)
Residue numbers refer to the chain shown, from its start. Each block holds one binder with its values, some of them ahead of it.

Molecular target: T1, human CD27-HisFc fusion protein (human, UniProt P26842 20-192)
T1 construct: also called CD27-HisFc (Sino Biological #10039-H03H); not shown: His tag and Fc
T1 sequence (looked up): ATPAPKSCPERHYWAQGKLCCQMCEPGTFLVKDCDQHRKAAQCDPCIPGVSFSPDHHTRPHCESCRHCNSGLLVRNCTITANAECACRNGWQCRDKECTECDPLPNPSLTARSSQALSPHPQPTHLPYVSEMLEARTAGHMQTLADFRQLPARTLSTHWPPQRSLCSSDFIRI
Assay: BLI (Octet RED96), CD27-HisFc captured on AHC sensor, Fab in solution
Protocol: A histidine tag was added to each unique sequence of the antibody Fab fragment at the C-terminal, and the antibody Fab fragment was overexpressed in an E. coli expression system, and then purified by using Ni-NTA affinity resin. […] The collected data was processed by Data Acquisition 7.1 software and fitted to a 1:1 combined Langmuir model curve. The mAb076 and mAb077 antibodies were the two antibodies with optimal binding and were selected for further analysis and development experiments.

binding result: binds
B1: mAb076 antibody Fab fragment with C-terminal histidine tag (Fab, V domains shown)
VH: EVQLVESGGGLVQPGGSLRLSCAASGFTFSDYGIHWVRQAPGKGLEWIGWINPNRGSTNYAQKFQGRVTISRDNSKNTLYLQLNSLRAEDTAVYYCARDYGYTWYFDVWGQGTLVTVSS
VL: DIQLTQSPSSLSASVGDRVTITCRASQDISSVLAWYQQKPGKAPKLLIYAASSLQSGVPSRFSGSGSGTDFTLTISSLQPEDFATYYCQQRDAWPLTFGQGTKVEIK

binding result: binds
B2: mAb077 antibody Fab fragment with C-terminal histidine tag (Fab, V domains shown)
VH: B1 VH with D31G, N59K, Y100P
VL: B1 VL with V32D, S53T, L96P
